In patent US20060257396A1 (published 2006):
Changes are numbered by the printed parent chain. One block for each binder: values may come before it.

How the values were obtained:
[1] = target: T1, aggregated synthetic Aβ1-42 (UniProt P05067 672-713); assay: ELISA on aggregated synthetic Aβ1-42 (given as ED50)
T1 construct: range 672-713; Aggregated form coated for ELISA; also called aggregated Aβ1-42; aggregate Aβ 1-42

[2] = target: T1, aggregated synthetic Aβ1-42; assay: ELISA on aggregated synthetic Aβ1-42
Monomer = target: T2, Monomer (preparation treated with peroxynitrite; modified residues not stated ; The preparation was treated with peroxynitrite. The modified residues are not stated and cannot be shown in the letters.); assay: immunoprecipitation of the peroxynitrite treated oligomeric Aβ1-42 preparation with the antibody, SDS-PAGE (16% Tricine), Western blot imaged with 3D6
T2 construct: Monomer fraction of the same preparation as m4; also called Aβ1-42 monomer; monomeric Aβ

[3] = target: T3, Aβ peptide (β-amyloid peptide; form and length not stated for the assay) (UniProt P05067 672-713); assay: average of competitive ELISA and BIAcore
T3 construct: also called beta amyloid peptide

[4] = target: T3, Aβ peptide (β-amyloid peptide; form and …); assay: ELISA competitive binding assay with biotinylated 3D6
[5] = target: T3, Aβ peptide (β-amyloid peptide; form and …); assay: BIAcore
[6] = target: T3, Aβ peptide (β-amyloid peptide; form and …); assay: BIAcore, Langmuir model (global analysis)
[7] = target: T1, aggregated synthetic Aβ1-42; assay: competitive Aβ ELISA with biotin conjugated mouse 12A11 Cγ2a
[8] = target: T3, Aβ peptide (β-amyloid peptide; form and …); assay: Biacore; humanized h12A11v1

B3: humanized 3D6 version 1 (antibody, V domains shown)
VH: EVQLLESGGGLVQPGGSLRLSCAASGFTFSNYGMSWVRQAPGKGLEWVASIRSGGGRTYYSDNVKGRFTISRDNAKNSLYLQMNSLRAEDTALYYCVRYDHYSGSSDYWGQGTLVTVSS
VL: YVVMTQSPLSLPVTPGEPASISCKSSQSLLDSDGKTYLNWLLQKPGQSPQRLIYLVSKLDSGVPDRFSGSGSGTDFTLKISRVEAEDVGVYYCWQGTHFPRTFGQGTKVEIK
notes: also called h3D6v1; h3D6 v1
fold loss of binding affinity against murine 3D6 [3]: ~3 fold | fold less binding affinity than 3D6 [4]: ~6 fold | Kd [5]: 2.06 nM

B4: humanized 3D6 version 2 (antibody, V domains shown)
VH: B3 VH with A75S, S78T, L93V
VL: B3 VL with Y1D
notes: also called h3D6v2; h3D6 v2
fold loss of binding affinity against murine 3D6 [3]: ~3 fold | fold less binding affinity than 3D6 [4]: ~6 fold | Kd [5]: 2.24 nM

B6: humanized 12A11 version 2 (antibody, V domains shown)
VH: QVQLVESGGGVVQPGRSLRLSCAFSGFTLSTSGMSVGWIRQAPGKGLEWVAHIWWDDDKYYNPSLKSRFTISKDTSKNTLYLQMNSLRAEDTAVYYCARRTTTADYFAYWGQGTTVTVSS
VL: DVVMTQSPLSLPVTPGEPASISCRSSQSIVHSNGNTYLEWYLQKPGQSPQLLIYKVSNRFSGVPDRFSGSGSGTDFTLKISRVEAEDVGVYYCFQSSHVPLTFGQGTKLEIK
notes: V region subcloned into heavy chain expression vector pCMV-Cgamma1 (human γ1); also called h12A11v2
Ka [6]: 6.86e+07 M⁻¹ | Kd [6]: 14.6 nM | koff [6]: 0.00412 s⁻¹ | kon [6]: 283000 M⁻¹ s⁻¹

B7: humanized 12A11 version 3 (antibody, V domains shown)
VH: B6 VH with K73R, T75N
VL: B6 VL
notes: Variable regions only; made like version 2; also called h12A11v3; humanized 12A11 v3
Ka [6]: 6.53e+07 M⁻¹ | Kd [6]: 15.3 nM | koff [6]: 0.0055 s⁻¹ | kon [6]: 359000 M⁻¹ s⁻¹

B8: humanized 12A11 version 1 (antibody, V domains shown)
VH: B6 VH with T28S, V50L, F69L, L80V
VL: B6 VL
notes: Variable regions only tied to the tested antibody; also called h12A11v1; humanized 12A11 v1
IC50 ratio to murine and chimeric 12A11 [7]: ≤ 2 fold | Ka [6]: 3.48e+08 M⁻¹ | Kd [6]: 2.87 nM | koff [6]: 0.00117 s⁻¹ | kon [6]: 408000 M⁻¹ s⁻¹ | Kd [8]: 23 nM

B9: humanized 12A11 version 2.1 (antibody, V domains shown)
VH: B6 VH with T75N
VL: B6 VL
notes: Variable regions only; made like version 2; also called h12A11v2.1
Ka [6]: 1.17e+08 M⁻¹ | Kd [6]: 8.54 nM | koff [6]: 0.00261 s⁻¹ | kon [6]: 306000 M⁻¹ s⁻¹

The remaining lines, values ahead:

EC50 [1]: 0.667 nM | EC50 [2]: < 1 nM | binding result (Monomer): binds
B1: murine 12B4 monoclonal antibody (antibody, V domains shown)
VH: QVTLKESGPGILQPSQTLSLTCSFSGFSLSTNGMGVSWIRQPSGKGLEWLAHIYWDEDKRYNPSLKSRLTISKDTSNNQVFLKITNVDTADTATYYCARRRIIYDVEDYFDYWGQGTTLTVSS
VL: DVLMTQTPLSLPVSLGDQASISCRSSQNIVHSNGNTYLEWYLQKPGQSPKLLIYKVSNRFSGVPDRFSGSGSGTDFTLKISRVEAEDLGVYYCFQGSHVPLTFGAGTKLELK
notes: Mouse hybridoma antibody; Leader left out; also called mAb 12B4

EC50 [1]: 0.233 nM | EC50 [2]: < 1 nM
B2: murine 12A11 monoclonal antibody (antibody, mouse IgG1, V domains shown)
VH: QVTLKESGPGILKPSQTLSLTCSFSGFSLSTSGMSVGWIRQPSGKGLEWLAHIWWDDDKYYNPSLKSRLTISKDTSRNQVFLKITSVDTADTATYYCARRTTTADYFAYWGQGTTLTVSS
VL: B1 VL with N28S, V90I, G96S
notes: also called mu12A11; m12A11

EC50 [1]: 0.333 nM | EC50 [2]: < 1 nM
B5: monoclonal antibody 2C1 (antibody, V domains shown)
VH: EVQLQQSGAELVKPGASVKLSCTGSGFNIKVYYVHWLKQLTEQGLEWIGRIDPENGETIYAPKFQDKATLTVDTSSNTAYLQLSSLTSEDTAVYYCVSSGYWGQGTTLTVSS
VL: DIVMTQSAFSNPVTLGTSASISCRSSKSLLHRNGITYLYWYLQKPGQSPQLLIYQMSNLASGVPDRFTSSGSGTDFTLKISRVEAEDVGVYYCAQNLELWTFGGGTKLEIK

Ka [6]: 1.67e+08 M⁻¹ | Kd [6]: 5.99 nM | koff [6]: 0.00313 s⁻¹ | kon [6]: 523000 M⁻¹ s⁻¹
B10: humanized 12A11 version 3.1 (antibody, V domains shown)
VH: B6 VH with V50L, T75N
VL: B6 VL
notes: Variable regions only tied to the tested antibody; also called h12A11v3.1; humanized 12A11 v3.1
